Data: the supplement of paper PMC9112550, “Optimization of the antimicrobial peptide Bac7 by deep mutational scanning” (BMC Biology, 2022)

test system: Escherichia coli TOP10; experiment: shrunken log2 fold change of peptide-encoding DNA abundance (4.5 h post-induction vs induction); higher = less antimicrobial activity (less host growth inhibition); settings: time post-induction: 4.5 h; library: site-saturation at positions 5, 18, 19, 20
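Also: peptides expressed intracellularly from a pBAD plasmid library in pooled LB shake-flask culture, induced with 0.3% L-arabinose, DNA abundance read by NGS, three biological replicates, DESeq2 with apeglm shrinkage.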

In order of rising “shrunken log2 fold change” value:
1. RRIRTRPPRLPRPRPRPYIKPRP  -1.22
2. RRIRNRPPRLPRPRPRPHPYPRP  -0.654
3. RRIRYRPPRLPRPRPRPTFHPRP  -0.649
4. RRIRVRPPRLPRPRPRPFQIPRP  -0.603
5. RRIRERPPRLPRPRPRPQNEPRP  -0.581
6. RRIRYRPPRLPRPRPRPFTMPRP  -0.558
7. RRIRNRPPRLPRPRPRPYWDPRP  -0.54
8. RRIRRRPPRLPRPRPRPVYIPRP  -0.535
9. RRIRNRPPRLPRPRPRPRFIPRP  -0.533
10. RRIRFRPPRLPRPRPRPHRIPRP  -0.526
11. RRIRIRPPRLPRPRPRPLFIPRP  -0.525
12. RRIRIRPPRLPRPRPRPIYDPRP  -0.471
13. RRIRVRPPRLPRPRPRPILTPRP  -0.443
14. RRIRERPPRLPRPRPRPNFIPRP  -0.442
15. RRIRLRPPRLPRPRPRPQFIPRP  -0.433
16. RRIRNRPPRLPRPRPRPHSPPRP  -0.415
17. RRIRDRPPRLPRPRPRPFTPPRP  -0.38
18. RRIRYRPPRLPRPRPRPPKTPRP  -0.38
19. RRIRVRPPRLPRPRPRPYRWPRP  -0.355
20. RRIRQRPPRLPRPRPRPLHDPRP  -0.346
21. RRIRLRPPRLPRPRPRPYFCPRP  -0.34
22. RRIRHRPPRLPRPRPRPIQTPRP  -0.338
23. RRIRPRPPRLPRPRPRPYEPPRP  -0.317
24. RRIRNRPPRLPRPRPRPVIYPRP  -0.301
25. RRIRWRPPRLPRPRPRPTFYPRP  -0.298
26. RRIRTRPPRLPRPRPRPANMPRP  -0.291
27. RRIRERPPRLPRPRPRPCVGPRP  -0.278
28. RRIRVRPPRLPRPRPRPAYQPRP  -0.264
29. RRIRNRPPRLPRPRPRPFNAPRP  -0.257
30. RRIRPRPPRLPRPRPRPHEYPRP  -0.25
31. RRIRRRPPRLPRPRPRPYQWPRP  -0.244
32. RRIRSRPPRLPRPRPRPLFMPRP  -0.236
33. RRIRIRPPRLPRPRPRPRCLPRP  -0.228
34. RRIRMRPPRLPRPRPRPSLHPRP  -0.222
35. RRIRQRPPRLPRPRPRPNTHPRP  -0.203
36. RRIRNRPPRLPRPRPRPRHMPRP  -0.199
37. RRIRQRPPRLPRPRPRPIIGPRP  -0.161
38. RRIRCRPPRLPRPRPRPRSCPRP  -0.159
39. RRIRQRPPRLPRPRPRPKRVPRP  -0.154
40. RRIRNRPPRLPRPRPRPHMEPRP  -0.145
41. RRIRHRPPRLPRPRPRPVCKPRP  -0.14
42. RRIRSRPPRLPRPRPRPWTKPRP  -0.137
43. RRIRPRPPRLPRPRPRPWKAPRP  -0.133
44. RRIRDRPPRLPRPRPRPLFLPRP  -0.13
45. RRIRSRPPRLPRPRPRPVYIPRP  -0.124
46. RRIRLRPPRLPRPRPRPQLHPRP  -0.123
47. RRIRNRPPRLPRPRPRPMDFPRP  -0.12
48. RRIRRRPPRLPRPRPRPHSMPRP  -0.118
49. RRIRKRPPRLPRPRPRPNFMPRP  -0.117
50. RRIRNRPPRLPRPRPRPNGSPRP  -0.0999
51. RRIRIRPPRLPRPRPRPGEHPRP  -0.0955
52. RRIRNRPPRLPRPRPRPEFKPRP  -0.0932
53. RRIRQRPPRLPRPRPRPPMVPRP  -0.0885
54. RRIRLRPPRLPRPRPRPKYDPRP  -0.0843
55. RRIRSRPPRLPRPRPRPKGMPRP  -0.0819
56. RRIRMRPPRLPRPRPRPSSMPRP  -0.0815
57. RRIRIRPPRLPRPRPRPEHMPRP  -0.0778
58. RRIRYRPPRLPRPRPRPDLPPRP  -0.0756
59. RRIRNRPPRLPRPRPRPVTWPRP  -0.0637
60. RRIRQRPPRLPRPRPRPYKKPRP  -0.0619
61. RRIRMRPPRLPRPRPRPSHVPRP  -0.0609
62. RRIRSRPPRLPRPRPRPNICPRP  -0.0465
63. RRIRPRPPRLPRPRPRPWENPRP  -0.0456
64. RRIRHRPPRLPRPRPRPQVMPRP  -0.0437
65. RRIRPRPPRLPRPRPRPMYCPRP  -0.0366
66. RRIRSRPPRLPRPRPRPEAVPRP  -0.0338
67. RRIRRRPPRLPRPRPRPMDSPRP  -0.0307
68. RRIRTRPPRLPRPRPRPGRNPRP  -0.0275
69. RRIRWRPPRLPRPRPRPHQWPRP  -0.0271
70. RRIRCRPPRLPRPRPRPPIEPRP  -0.0198
71. RRIRMRPPRLPRPRPRPYLVPRP  -0.016
72. RRIRFRPPRLPRPRPRPVHLPRP  -0.0117
73. RRIRIRPPRLPRPRPRPIWEPRP  -0.0114
74. RRIRERPPRLPRPRPRPVEHPRP  -0.0102
75. RRIRNRPPRLPRPRPRPLWDPRP  -0.00945
76. RRIRYRPPRLPRPRPRPLEIPRP  -0.00674
77. RRIRYRPPRLPRPRPRPCIDPRP  -0.00448
78. RRIRTRPPRLPRPRPRPHEIPRP  0.00283
79. RRIRSRPPRLPRPRPRPGRHPRP  0.0088
80. RRIRQRPPRLPRPRPRPQKGPRP  0.011
81. RRIRRRPPRLPRPRPRPIKEPRP  0.0124
82. RRIRKRPPRLPRPRPRPMKEPRP  0.0132
83. RRIRWRPPRLPRPRPRPCLNPRP  0.0137
84. RRIRLRPPRLPRPRPRPRVHPRP  0.0142
85. RRIRTRPPRLPRPRPRPVQQPRP  0.0144
86. RRIRPRPPRLPRPRPRPMQDPRP  0.0218
87. RRIRHRPPRLPRPRPRPEQIPRP  0.0219
88. RRIRQRPPRLPRPRPRPNALPRP  0.023
89. RRIRARPPRLPRPRPRPMCLPRP  0.0284
90. RRIRFRPPRLPRPRPRPWVCPRP  0.029
91. RRIRPRPPRLPRPRPRPHWMPRP  0.0365
92. RRIRFRPPRLPRPRPRPIAFPRP  0.0375
93. RRIRLRPPRLPRPRPRPDQFPRP  0.0392
94. RRIRKRPPRLPRPRPRPKIVPRP  0.0401
95. RRIRVRPPRLPRPRPRPIKAPRP  0.0466
96. RRIRQRPPRLPRPRPRPLGSPRP  0.0483
97. RRIRPRPPRLPRPRPRPEEVPRP  0.0532
98. RRIRCRPPRLPRPRPRPGWFPRP  0.0546
99. RRIRYRPPRLPRPRPRPQCLPRP  0.0613
100. RRIRMRPPRLPRPRPRPTTCPRP  0.0613
101. RRIRIRPPRLPRPRPRPGHWPRP  0.0615
102. RRIRWRPPRLPRPRPRPIFCPRP  0.067
103. RRIRDRPPRLPRPRPRPKRGPRP  0.0777
104. RRIRERPPRLPRPRPRPRHVPRP  0.0784
105. RRIRDRPPRLPRPRPRPNAAPRP  0.0798
106. RRIRCRPPRLPRPRPRPKVCPRP  0.0885
107. RRIRIRPPRLPRPRPRPQRLPRP  0.0966
108. RRIRCRPPRLPRPRPRPLGPPRP  0.106
109. RRIRRRPPRLPRPRPRPCCSPRP  0.107
110. RRIRRRPPRLPRPRPRPTAGPRP  0.109
111. RRIRSRPPRLPRPRPRPKLRPRP  0.111
112. RRIRLRPPRLPRPRPRPFIWPRP  0.112
113. RRIRWRPPRLPRPRPRPDYWPRP  0.122
114. RRIRERPPRLPRPRPRPGVRPRP  0.125
115. RRIRTRPPRLPRPRPRPTGHPRP  0.131
116. RRIRFRPPRLPRPRPRPCFAPRP  0.153
117. RRIRPRPPRLPRPRPRPPAFPRP  0.166
118. RRIRFRPPRLPRPRPRPSWRPRP  0.167
119. RRIRVRPPRLPRPRPRPGRMPRP  0.172
120. RRIRVRPPRLPRPRPRPGRDPRP  0.175
121. RRIRQRPPRLPRPRPRPRFTPRP  0.184
122. RRIRGRPPRLPRPRPRPTKYPRP  0.189
123. RRIRNRPPRLPRPRPRPERHPRP  0.204
124. RRIRKRPPRLPRPRPRPPCFPRP  0.211
125. RRIRLRPPRLPRPRPRPRWQPRP  0.217
126. RRIRPRPPRLPRPRPRPRTQPRP  0.223
127. RRIRNRPPRLPRPRPRPVGMPRP  0.23
128. RRIRLRPPRLPRPRPRPDCAPRP  0.239
129. RRIRGRPPRLPRPRPRPCVSPRP  0.265
130. RRIRWRPPRLPRPRPRPWCGPRP  0.273
131. RRIRQRPPRLPRPRPRPKIAPRP  0.278
132. RRIRARPPRLPRPRPRPWWPPRP  0.292
133. RRIRERPPRLPRPRPRPKPQPRP  0.309
134. RRIRQRPPRLPRPRPRPKSQPRP  0.32
135. RRIRRRPPRLPRPRPRPAVHPRP  0.321
136. RRIRDRPPRLPRPRPRPRERPRP  0.352
137. RRIRQRPPRLPRPRPRPRKGPRP  0.353
138. RRIRRRPPRLPRPRPRPICRPRP  0.378
139. RRIRSRPPRLPRPRPRPPWDPRP  0.409
140. RRIRWRPPRLPRPRPRPPMPPRP  0.444
141. RRIRWRPPRLPRPRPRPTMAPRP  0.449
142. RRIRPRPPRLPRPRPRPRPDPRP  0.45
143. RRIRDRPPRLPRPRPRPTIAPRP  0.521
144. RRIRGRPPRLPRPRPRPPPYPRP  0.611
145. RRIRDRPPRLPRPRPRPVRHPRP  0.646
146. RRIRRRPPRLPRPRPRPGRGPRP  0.805
147. RRIRVRPPRLPRPRPRPTDTPRP  0.817
148. RRIRKRPPRLPRPRPRPNAQPRP  0.842
149. RRIRFRPPRLPRPRPRPPEGPRP  0.996
150. RRIRRRPPRLPRPRPRPWCRPRP  1.02
